The test deals with recombinant HIV-1 trimeric spike (BG505 SOSIP.664) (HIV-1).

As usually defined, the Kd is the equilibrium constant for the complex coming apart.

B1: ODIN-1 (VHH-72.18 with UL-CDR3 from NC-Cow1 bovine IgG in FR2 loop) (bispecific antibody, V domains shown)
VH: MGWFRQTNKKECPEDYTYNPRCPQQYGWSDCDCMGDRFGGYCRQDGCSNYIHRSTREFVATISWSGGSTYYTDSVKGRFTISRDNAKNTVYLQMNSLKPDDTAVYYCAAAGLGTVVSEWDYDYDYWGQGTQVTVSS
As for B1, the Kd was determined as 30 nM.

These data come from patent US20250228955A1.
